# Patent publication US20250188151A1, “C-JUN ANTAGONIST PEPTIDES” (The University of Bath, priority 2022, published 2025)
# Entries after “also recorded” stand apart in the source; their conditions may differ. Like-named read-outs stand apart in the source and are kept apart here. Numbered stars: 1 amine (or outer) side, 2 acyl side, 3 side chain; on linkers, the order of the positions; unused ones are H or OH. Bridge positions count the residues as written; N and C are the ends. Ends that are not written are not given here. mXylylene = c1cc(C[*:1])cc(C[*:2])c1
# T1: cJun bZIP (human, UniProt P05412 252-308, limits assumed)
# T1 construct: Purified from a His-SUMO fusion with the tag cleaved off; also called c-Jun bZIP domain; 60 amino acid c-Jun bZIP construct
# T1 chain: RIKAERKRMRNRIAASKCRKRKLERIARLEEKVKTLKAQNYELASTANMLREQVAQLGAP
# T2: HingeW (synthetic construct)
# T2 chain: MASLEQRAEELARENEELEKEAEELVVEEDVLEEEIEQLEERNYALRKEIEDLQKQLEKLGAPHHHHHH
# T3: A-FosW (synthetic construct)
# T3 chain: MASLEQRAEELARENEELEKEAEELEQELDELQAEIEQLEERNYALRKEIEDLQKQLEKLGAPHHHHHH
# Legend:
# [1] = target: c-Jun bZIP (expressed in E. coli) (Homo sapiens) (UniProt P05412); experiment: cell_activity; conditions: TBS assay
# [2] = target: T4, cJun bZIP/TRE DNA interaction (transcriptional block of TRE-mDHFR) (Homo sapiens, UniProt P05412, S292Y); experiment: Transcription Block Survival (TBS) assay: colony counting and growth competition in E. coli; format: cell-based; conditions: vs transcriptionally blocked cells (TRE-mDHFR + cJun bZIP)
# T4 construct: expressed in transfected cells; host or cells: E. coli BL21 Gold carrying pES300d-TRE-mDHFR and pES230d-cJun bZIP
# Excerpt: Library Construction and TBS Assay: Library inserts were produced using PCR fill-in reactions from synthesised primers (Sigma) with degenerate codons at the desired positions to produce the correct residue options. The library was subcloned using SacI and AscI sites into the pET24a plasmid containing A-FosW. The primers used were cJun-Hinge-Lib-F: 5′-[…] TATGCC-3′ (SEQ ID NO: 49) and cJun-Hinge-Lib_R: 5′-[…] GTTC-3′ (SEQ ID NO: 50). The library DNA was transformed into NEB 10-beta electrocompetent E. coli cells. The following equation was utilised to determine library coverage by the number of single colonies: E=100×(1−1/n)^m where E is the percentage of the library missing, m is the number of colonies collected and n is the library size. […] Library DNA quality was assessed by sequencing both the DNA pool and a number of single colonies to show degenerate codons in the correct positions in the pool and to show a diversity of library members from single colonies. The pool of library DNA was transformed into BL21 Gold cells already containing pES300d-TRE-mDHFR and pES230d-cJun bZIP.
# Selective pressure is applied by growing the bacteria in M9 minimal media with TMP (2-4 μM) alongside ampicillin, kanamycin and chloramphenicol to maintain the required plasmids, and IPTG (1 mM) to induce protein expression. The library transformants were first plated out onto selective agar plates (2 μM TMP) and grown at 37° C. for 72-96 h. Optimisation experiments (FIG. 5) indicate that 4 μM TMP is optimum for selection however a lower stringency is used initially before selection is increased in later steps. Colonies from this first round of selection were pooled and serially grown in liquid culture at starting OD600 of 0.05 and grown at 37° C. with shaking at 200 rpm until the OD600 reached 0.6. TMP concentration was 2 μM in the first liquid culture passage before it was increased to the optimum 4 μM in subsequent passages. […] At each passage step, a sample of the culture was plated on LB agar (supplemented with antibiotics to maintain plasmids) to select and sequence individual colonies, and a DNA pool was also sequenced. This allows the occurrence of library members to be monitored as winner sequences are selected for. Assay Validation experiments utilised a modified assay methodology whereby overnight cultures from glycerol stocks of the Control Strains (Table 2) were diluted to OD600=0.5 and 50 μL was plated on a selective M9 minimal medium agar plate.
# Transcription block survival (TBS) is an intracellular assay that utilises cell survival as a readout. […] This enzyme is absolutely essential for survival since it is required for the production of purines needed for DNA and amino acid synthesis. […]. We produced a mDHFR gene (FIGS. 2 and 3) by rational design to introduce 15 TRE sites into the coding DNA sequence to allow a robust cJun transcriptional block whilst minimising alteration to the expressed protein (TRE-mDHFR). In particular, the resulting TRE-mDHFR construct was produced via two silent and thirteen conservative mutations. […] The accessible surface areas of all other amino acid residues were calculated using the ‘Accessible Surface Area and Accessibility Calculation for Protein’ tool (http://cib.cf.ocha.ac.jp/bitool/ASA/). […]
# [3] = target: cJun bZIP (Homo sapiens, UniProt P05412, S292Y); experiment: CD spectra and thermal denaturation of peptide/cJun heterodimers; conditions: for Tm (° C.) (CD): heterodimer with cJun bZIP, Example 1
# Protocol: (§1) Circular Dichroism (CD): An Applied Photophysics Chirascan was used for CD measurements, with a 200 μL sample in a 1 mm path length CD cell. Protein/DNA samples were suspended in 150 mM potassium phosphate, 150 mM potassium fluoride and 5 mM TCEP at pH 7.4 and were equilibrated for 30 minutes before measurement. […] These scans were averaged and converted to molar residue ellipticities (MRE). Thermal denaturation experiments were performed by measuring the ellipticity at 222 nm over a 1 to 90° C. gradient at 1° C. increments. Post-melt scans at 20° C. confirmed the transitions were reversible as they overlaid within 10% of the pre-melt scan.
# (§2) Circular Dichroism (CD): An Applied Photophysics Chirascan was used for CD measurements, with a 200 μL sample in a 1 mm path length CD cell. Protein/DNA samples were suspended in 150 mM potassium phosphate, 150 mM potassium fluoride and 5 mM TCEP at pH 7.4 and were equilibrated for 30minutes before measurement. […] Thermal denaturation experiments were performed by measuring the ellipticity at 222 nm over a 1 to 90° C. gradient at 1° C. increments. Post-melt scans at 20° C. confirmed the transitions were reversible as they overlaid within 10% of the pre-melt scan.
# (§3) Peptide helicity was determined by quantifying the CD signal at 222 nm of peptide only samples. Thermal denaturation experiments were then used to determine the Tm of peptide-c-Jun heterodimers, which was used as an approximate measure of target engagement. […] The same 60 amino acid c-Jun bZIP construct was used for all experiments, regardless of antagonist peptide length.
# [4] = target: T1, cJun bZIP; experiment: CD spectra at 20 °C
# [5] = target: T1, cJun bZIP; experiment: cell-based or functional assay
# [6] = test system: TRE DNA; experiment: CD control: peptide with TRE DNA; format: binding
# Protocol: Circular Dichroism (CD): An Applied Photophysics Chirascan was used for CD measurements, with a 200 μL sample in a 1 mm path length CD cell. Protein/DNA samples were suspended in 150 mM potassium phosphate, 150 mM potassium fluoride and 5 mM TCEP at pH 7.4 and were equilibrated for 30 minutes before measurement. […] These scans were averaged and converted to molar residue ellipticities (MRE).
# [7] = target: T1, cJun bZIP
# [8] = target: T1, cJun bZIP; experiment: ITC, antagonist injected into cJun, one site model
# [9] = target: cJun (Homo sapiens, UniProt P05412, S292Y); experiment: CD dimer exchange experiments; conditions: A-FosW mixed with preformed HingeW/cJun heterodimer
# Protocol: Circular Dichroism (CD): An Applied Photophysics Chirascan was used for CD measurements, with a 200 μL sample in a 1 mm path length CD cell. Protein/DNA samples were suspended in 150 mM potassium phosphate, 150 mM potassium fluoride and 5 mM TCEP at pH 7.4 and were equilibrated for 30 minutes before measurement. […] These scans were averaged and converted to molar residue ellipticities (MRE). Thermal denaturation experiments were performed by measuring the ellipticity at 222 nm over a 1 to 90° C. gradient at 1° C. increments.
# [10] = CD spectra and thermal denaturation of peptide-only samples (helicity, homodimer Tm)
# Protocol: as §1, §2, §3
# [11] = target: T2, HingeW; experiment: CD, DNA spectrum unchanged; conditions: tags: C-terminal 6xHis
# [12] = target: T3, A-FosW; experiment: CD, DNA spectrum unchanged; conditions: tags: C-terminal 6xHis
# [13] = target: T1, cJun bZIP; experiment: cell-based or functional assay
# [14] = target: T1, cJun bZIP
# [15] = target: T1, cJun bZIP; experiment: CD thermal denaturation
# [16] = target: T1, cJun bZIP; experiment: cell-based or functional assay
# [17] = target: T1, cJun bZIP; experiment: CD thermal denaturation, peptide 5 µM and c-Jun 5 µM
# [18] = target: T1, cJun bZIP; experiment: ITC (PEAQ-ITC), peptide injected into cJun, one site model
# [19] = not given; remark: listed apart in the source
molecule,measurement,setting,value
TRE-mDHFR gene (15 TRE sites),activity (fold reduction in colony count),"[1]; 4 uM TMP, 1 mM IPTG",21
"MASTDTLQAETDQLEDEKYALQTEIANLLKEKEKLGAPHHHHHH [cFos LZ, human cFos leucine zipper domain construct]",effect on TRE-mDHFR transcriptional block / colony numbers,[2],no significant increase in colony numbers; also recorded: unable to effectively dissociate the cJun bZIP from TRE DNA
MASLDELQAEIEQLEERNYALRKEIEDLQKQLEKLGAPHHHHHH [FosW],effect on TRE-mDHFR transcriptional block / colony numbers,[2],no significant increase in colony numbers; also recorded: unable to effectively dissociate the cJun bZIP from TRE DNA
same,Tm (° C.) (CD),[3],54 °C
WT-mDHFR gene,activity (fold reduction in colony count),[1]; presumed nonspecific plasmid binding,1.3
"A-FosW (Recombinant, capped and C-terminally 6xHis-tagged; also called rationally designed A-FosW template; parent peptide) peptide: MASLEQRAEELARENEELEKEAEELEQELDELQAEIEQLEERNYALRKEIEDLQKQLEKLGAPHHHHHH",increase in α-helicity relative to the average of the two component spectra,[4],39%
same,"IC50, CD antagonism of cJun/TRE DNA (peak at ~281 nM)",[5],16 µM
same,"IC50, EMSA of free TRE DNA band",[5],12.1 µM
same,TBS assay colony numbers relative to TRE-mDHFR only,[5],60%
same,effect on TRE-mDHFR transcriptional block / colony numbers,[2],restore cell survival
same,interaction with TRE DNA,[6],no interaction
same,Tm (° C.) (CD),[7],69.9 ° C.
same,ΔTm from component average (CD),[7],27.5 ° C.
same,Kd,[8],0.0883 µM
same,TΔS (ITC),[8],-26.9 kcal/mol
same,ΔG (ITC),[8],-9.56 kcal/mol
same,ΔH (ITC),[8],-36.5 kcal/mol
same,Tm (° C.) (CD),,45.1 ° C.
same,dimer exchange,[9],no dimer exchange had occurred
same,Fraction helicity at 20° C. (CD),"[3]; heterodimer with c-Jun, equimolar, 10 μM total",38.7%
same,temperature of smaller initial transition (double transition),[3]; heterodimer with cJun,~30 °C
same,Tm (° C.) (CD),[3],69.9 °C
same,ΔTm from component average (CD),[3]; heterodimer with cJun vs average of component profiles,27.5 °C
same,Fraction helicity at 20° C. (CD),[10]; peptide alone,40.1%
same,Tm (° C.) (CD),[10]; peptide alone (homodimer),45.1 °C
TRE duplex (dsDNA) DNA 1: GTCAGTCAGTGACTCAATCGGTCA DNA 2: TGACCGATTGAGTCACTGACTGAC,binding result,[11],no binding
same,binding result,[12],no binding
"EAEELVVEEDVLEEEIEQLEERNYALRAEICNLSCQ-NH2 (linker 31-35 via mXylylene; not fully specified) [HingeW variant meta DBMBW, cyclised]","IC50 (µM), CD",[13],61.5 µM
"EAEELVVEEDVLEEEIEQLEERNYALRSEICSLQCQ-NH2 (linker 31-35 via mXylylene; not fully specified) [HingeW variant 0W, cyclised]","IC50 (µM), CD",[13],77.6 µM
"MASLDELQAEIEQLEERNYALRKEIEDLQKQLEKLGAPHHHHHH (not fully specified, Recombinant, capped and C-terminally 6xHis-tagged; Lacks the acidic extension) [FosW]","IC50, CD antagonism of cJun/TRE DNA (peak at ~281 nM)",[5],120 µM
same,heterodimer Tm,[14],54 ° C.
"Ac-EAEELVVEEDVLEEEIEQLEERNYALRKEIKDLQDQ-NH2 (lactam 31-35; SMILES CC[C@H](C)[C@H](NC(=O)[C@H](CCC(=O)O)NC(=O)[C@H](CCCCN)NC(=O)[C@H](CCCNC(=N)N)NC(=O)[C@H](CC(C)C)NC(=O)[C@H](C)NC(=O)[C@H](Cc1ccc(O)cc1)NC(=O)[C@H](CC(N)=O)NC(=O)[C@H](CCCNC(=N)N)NC(=O)[C@H](CCC(=O)O)NC(=O)[C@H](CCC(=O)O)NC(=O)[C@H](CC(C)C)NC(=O)[C@H](CCC(N)=O)NC(=O)[C@H](CCC(=O)O)NC(=O)[C@@H](NC(=O)[C@H](CCC(=O)O)NC(=O)[C@H](CCC(=O)O)NC(=O)[C@H](CCC(=O)O)NC(=O)[C@H](CC(C)C)NC(=O)[C@@H](NC(=O)[C@H](CC(=O)O)NC(=O)[C@H](CCC(=O)O)NC(=O)[C@H](CCC(=O)O)NC(=O)[C@@H](NC(=O)[C@@H](NC(=O)[C@H](CC(C)C)NC(=O)[C@H](CCC(=O)O)NC(=O)[C@H](CCC(=O)O)NC(=O)[C@H](C)NC(=O)[C@H](CCC(=O)O)NC(C)=O)C(C)C)C(C)C)C(C)C)[C@@H](C)CC)C(=O)N[C@H]1CCCCNC(=O)C[C@@H](C(=O)N[C@@H](CCC(N)=O)C(N)=O)NC(=O)[C@H](CCC(N)=O)NC(=O)[C@H](CC(C)C)NC(=O)[C@H](CC(=O)O)NC1=O, Synthetic, NΔ20 CΔ7; Best single lactamised peptide; also called cyclised form of 22/23) [HingeW peptide variant 23]",fold lower IC50 than 11,[5],1.6 fold
same,heterodimer ΔTm against parent sequence 11,[15],~8 ° C.
same,heterodimer ΔTm from lactamisation (23 against linear 22),[15],~9 ° C.
same,IC50 CD,[16],52.7 µM
same,Tm (° C.) of peptide-c-Jun heterodimer,[17],65 ° C.
same,-TΔS,[18],14 kcal/mol
same,Kd,[18],0.0866 µM
same,"Stoichiometry, n",[18],0.97
same,ΔG,[18],-9.66 kcal/mol
same,ΔH,[18],-23.6 kcal/mol
"EAEELVVEEDVLEEEIEQLEERNYALRSEICSLQCQ-NH2 (not fully specified; cysteine pairing not given here) [HingeW variant 0W, linear]","IC50 (µM), CD",[13],86.7 µM
cJun bZIP (protein) RIKAERKRMRNRIAASKCRKRKLERIARLEEKVKTLKAQNYELASTANMLREQVAQLGAP,Tm (° C.) (CD),[19],39.8 ° C.
"EAEELVVEEDVLEEEIEQLEERNYALRAEICNLSCQ-NH2 (not fully specified; cysteine pairing not given here) [HingeW variant meta DBMBW, linear]","IC50 (µM), CD",[13],91.1 µM
